# Measurements reported in the domain aggregation screens of Martell et al. (2025).
# Experiment: soluble fraction after stress (log2 fold change); higher = more stays soluble; pooled small domains, quantitative proteomics
# Conditions: stress: 50 degC
# Summary of the method: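 The measure of aggregation propensity here is the base-two logarithm of the fold change in the soluble amount of each protein after stress. A higher value means more of that protein stays in solution. Stress was applied at 50°C to pooled libraries of small protein domains, read out by high-throughput quantitative proteomics.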
row,Sequence,soluble fraction (log2)
1,HMKNTIPVPHIIGLSEQEARETLERAGLQLNVIKTEPNTKYESGQVTDTNPNEGIKVPKGTIVNVVLADS,-0.00961
2,HMREVGVPNLRGLTAEEAQIVLSNAGLNLRTEPIRRVHETITVGRIAEQDPMPDLTIRSQRSVTTWLSSGP,0.317
3,HMAFRLPNGYGTIRRLTGNRRKPYVALVNPTQVFDDEKGTSHYKYDLLGTFAEKIDAYNAVMQYHKSPGGL,-1.35
4,HMGQISDESVLKEMVVQLIADNPKEVASYLGGKETLLQWFMGQVARATKGKADPQAVKQLLLDEFEKLK,0.092
5,HMLLNPFERLTERELEIADLYAKGYGNLEIANFLSIKQNTVSTYKKRIFEKLGIDNLVELIELIKNY,0.148
6,HMKKEQVIVPNVVGDTYDVALRKLTDAKLKVGETFPADREGHQGVIEKQSPAAGETVDEDTPVALFFKV,0.0344
7,HMIKSIRELAEVITLWKNQGKTILIAEHRLSYLMDLADRVLYMKDGQIENDFSMADFRKIPPDEISRMGLR,-0.126
8,HMGSGLAAAEKIRKAHPEIKIVVATSLIDTQVLARAKAVGADSLWYKDGDEGTLMQVVRRTMAGDHIFP,-0.00704
9,HMQIVHKHLQLQPDQGALRAALYSHKAVVAEQVNEQGAINLEIKLAESDFLRLLKSSGLKLQDLVSLS,-0.205
10,HMGTELSYSEFLNKVEAGEVTNVTIRGPEITFQTGNSSYTTYAPDDPKLIEHLTAKGVAIKAGP,0.216
11,HMTKAGVDAWTRGDYAAAVKEWQAQAAKGDADAIFNLGQAFKLGKGVPQDLIKAEQLFGQAAA,0.154
12,HMPYNRRYLISNADGALYTVEENGLVKLEETNLTAELFETRGMQDIPDGKLLITLHDPTILYWHDSENLFP,-1.19
13,HMEGDKEIPNVIGKSINDAKKILEQAGLKLGEVKKVNDSSVAKNVVLSTNPNAGTKVSAGDAVSITVAEG,0.0251
14,HMLGYGEQEREAQKYLEMHTAFQADPSLQKMYLPENQYALISKVMEMTGIKNVKSYLTPPNEL,-0.0174
15,HMGITPSIEMILEYFAFKESSETEANKFFNYYSSIGWLVGGKTKMKDWKASARNWIMNQNKFQ,-3.97
16,HMIPTDPNGDLIKILYTSDQINELYARAKLNDVEDLFLDWTKNVLGESNFEETGPTKNEYLIPQ,-0.149
17,HMSEQLKQIAERIKELRNIAGLGEEELAAKLDIPVDTYREYESGNVDIPVSFLYKISGMFNVELTAIL,0.0417
18,HMLKNKSTGNINETKAILELALNHSHFKVFDNRDMTVTFKNLATQFTTMQRILVQMFFPLPAGVELIIE,≥ 0.62
19,HMSNPPIRIGKKALHELLTTWLSLLSRDGVAYLVVQKNLGADSLTAWLRDQGFPSEKIASKKGFRIIEVH,-0.245
20,HMSGSPREQAESEYRKAIAAVNQGRVSEATESLRAALRLDAFQVAARQLLVKLLLEAKNQDEAIQVLR,-0.463
21,HMGGKYKGVIIGHLIDKTLRYNELQKLISHATPKMLIQQLKELEADGIIQRKLYPVVPPKTEYSLTERG,-0.754
22,HMYPGQILEIYLDEIKRLYLNGLSSADIFAEIKEGSIPSVKKAIRSMKDGSAPVKITEAEESTRIAPS,-0.441
23,HMTEKPTREAHILDQLARDGGVLVAALSRELGVSEVTIRSDLRDLEAAGLLQRTHGGAQASSFQTVL,-0.0142
24,HMGKVLIYKPNMSVSDVAIRLGISNAEIIKRLMGLGVMTSINQTIDRDTIELVAMDLGFSIEN,-0.656
25,HMRNERDRQLYAAMEKLKAEYREALYLVYFENMSYRDAAAVMAQTEKQISNLVYRGKQSLKTILEQEGF,-2.65
26,HMQGEVPYSQFLTEVDRGDVQSVVIEGNNISGFYKNSSTAFTVVAPDDPKLVERLMEQGVEVKARPV,0.0205
27,HMAPSVNEVAWAQKIIDAHAEAAAAGKGLVVVDGKLIENLHVEEAKQLLSLSDAIAKNDASNG,0.16
28,HMPDYYAILEVERTADAKTIKAAYRKLALAYHPDRNPGDQAAEERFKQINEAYAVLSDPEKRARYDRYGSV,-0.31

row,Sequence,soluble fraction (log2)
1,HMDFVKGDTVVFIDAFMPDHLMTIHKVQGEGILLDGNHKFALAHLIRHASTVELNAKRRLSLTEQS,-2.05
2,HMSEPRYRQLATILAQEIRSNHSAGDQLPSEQALAKRFEVNRHTVRRAVDELVAAGMVTRHQGWGTQVV,-0.0244
3,HMEGGLIMDRIEKGLQSGVMPDLRGLNLKDALYLLESYVQVQVIGSGGVIKQSIKTGDKFIMGSVIKLEL,-0.0813
4,HMPTLLGYKHILSAWNPDTNTVFRTSYGYDGEYGSREEAMQALIKMIQEGGKATPRGIEESEVPIY,-0.126
5,HMKVELSENEKIIYDLLSNQEVLLSEIKDKAELSNKAWDKSTKSLRKLGLVIVEKKDDNIYISKS,-0.362
6,HMAMTRTEYLNQLKHYLKRLPHTDYEEAMDYFKEYFEEAGPENEAQVIQDLGNPKEAAYEILSQLL,-0.253
7,HMDLKTNSQLINELEKKIKRPFDREIKNYLNKNLSTDRMISNNEIDKIILFYSGNNEIPNIEKISLILNDN,-0.112
8,HMSATPQRMSIINELDSARKNLSAYDLRDSLKDKGHSFNISTIYRVLSFWIDVGVVHKMDSSNTYL,0.147
9,HMFDGNIKIVEDAFSVTIVARGTEVKISGDPENVYLASKTVEGLLTLIDKGEAITDQRVHYVIGLVREG,-2.65
10,HMLEQEDMYGYQMIETLRERSEHSFDLKAGTLYPLLHALEQKGLITARDEASAAGRPRRYYHLTDAG,-0.144
11,HMGLVLIDSYNDIGSAKLITNKIRNLGLIFEENENKINVFAGPFEKNDINLKIDFLIRNGYTNAQLY,-2.48
12,HMFPELNAEETQVVQLLQKQTEGMQVNSLVVESNIPITRMSGILFELELKGIIRNYAGGVYKL,-2.16
13,HMERNAEDFAAKYQEIYQDMFRFALYTLKNRQEAEDVVSETVLDAWKGIEGLKNESAFSAWMFRILVNK,0.152
14,HMNAEGLIGREAVALTAVDAHGGRVRLGGEEWSARLSKENGGVSRLSVGDPVRVTDIDGAIAVVAP,0.187
15,HMNMENIADKIGKIYESLPEDLKLMIKYRDIDDLTYDEIAVKADLPVGTVRSRLHRAREQLLKELEKN,-0.143
16,HMRTPLTGREEQVATLIGRGMTNSEIAESLSVDESTVKTHIGSILRKVHLRDRLQVALWFHGLPIE,-0.495
17,HMYQKERDKEISEIETFLKKITNANGTRAYSDESIADMSYVELLNLYEGITSKLTEEEIENI,0.131
18,HMGIFAQTTKWRDIYTVKKKDTIFGIANKYGLSLPELMEANPEMKQEGYMLQKGTTLFIPFASD,-0.483
19,HMGMTAPIPGVVLKVSVLPGQKVERGDELLTIEAMKMFNVMRSPSSGTIATVHIKDGDRVVQGQPLVTFA,0.025
20,HMAEWLLVQLTNGNWFYGEVIEKTDATIVLNTDILGKVSIQKLDIRRSISGPLTAAKRQEIEDSERAKD,-0.0179
21,HMEDPRVTEIKNLQQDLAKKFKPTQGPASASDAVERVTAITTVMTKVAALPEDLRSEAMQPGKKM,-0.322
22,HMHQAVTVTKPARLFTGPDGKGVVRSLDVGMMLYPTGEKQGMMWEVEDELGNKGWVSSTLLELS,0.207
23,HMSISDEDFAKLLDFVKEKWDAGELDNAEDIKAAISEGEKEFGVSLDESTRTTLASALQQLN,-0.134
24,HMPKRYAGPDIIAIYGSDVFFRVGSGDGLMVIPVGRSMDNIEVVSVDAPRSVELMWKDGGPFTVPV,-0.165
25,HMTKGVKVEIGTEEASVDLYVVMEYGTPIQKAAYDAQESVRKAIETMTNLHVVRVDVHVQGVSF,-0.134
26,HMDKSPVLQLNRDVPAGQQISADDFRTVEIGADGAFRSVPSSDLNAMVGSYAKVRLIAGTLLAREALQSG,0.0412
27,HMSVPRPSAVEVTSLVTGVRDLLPHLGEGYVERVLVEFGFKVDETINALLEGNLPKHLQDLDPSLTKEI,-0.662
